Experimental data reported in US20190389905A1 (OREGON STATE UNIVERSITY, published 2019).
The star is where a group is joined. Biotin = O=C1N[C@H]2[C@H](CS[C@H]2CCCCC(=O)*)N1; Ahx = NCCCCCC(=O)O

Legend:
[1] = target: T1, sAniA, recombinant AniA (NGO1276) of Neisseria gonorrhoeae FA1090 lacking the N-terminal palmitoylation … (Neisseria gonorrhoeae FA1090, UniProt Q02219 19-392); experiment: cell-based or functional assay
T1 sequence: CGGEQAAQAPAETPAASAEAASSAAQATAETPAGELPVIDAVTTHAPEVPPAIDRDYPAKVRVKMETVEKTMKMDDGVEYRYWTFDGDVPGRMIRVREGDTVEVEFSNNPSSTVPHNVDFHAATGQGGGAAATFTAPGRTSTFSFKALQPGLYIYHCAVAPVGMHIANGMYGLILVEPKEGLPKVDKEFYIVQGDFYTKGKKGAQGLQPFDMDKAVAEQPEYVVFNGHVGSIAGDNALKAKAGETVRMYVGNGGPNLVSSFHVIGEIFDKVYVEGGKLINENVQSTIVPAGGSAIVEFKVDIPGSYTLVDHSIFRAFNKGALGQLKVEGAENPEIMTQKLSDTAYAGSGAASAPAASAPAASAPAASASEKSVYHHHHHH

[2] = target: AniA expressed by intact N. gonorrhoeae FA1090 ΔaniA/Plac::aniA cells (Neisseria gonorrhoeae FA1090), Q02219; experiment: cell-based or functional assay
[3] = target: T1, sAniA, recombinant AniA (NGO1276) of …; experiment: biolayer interferometry (OctetRed 96): C7-3Bio on streptavidin sensors, sAniA 50-1000 nM in solution, 2:1 heterogeneous ligand model, average ± SEM of three experiments
Description: Streptavidin (SA) biosensors (ForteBio) were loaded with C7-3Bio peptides for 10 min. Unloaded tips were used as a control. The sAniA samples were prepared in Kinetic Buffer in concentrations of 50, 100, 500, and 1000 nM. The baseline was established for 240 s and the association and dissociation steps were performed for 500 s. Experiments were performed in three biological replicates with the curve fitting using 2:1 (Heterogeneous Ligand) model and KD value calculations were completed using Octet Data Analysis (version 9).
The BLI experiments were performed using steady state method and curve fitting of the association and dissociation responses.

[4] = target: T1, sAniA, recombinant AniA (NGO1276) of …; experiment: phage ELISA on sAniA-coated wells; reference is phage-displayed 12-5
Description: Individual wells in 96-well transparent plates (Greiner-Bio) were coated with 100 μL of 100 pg/mL of sAniA suspended in 0.1 M NaHCO₃pH 8.6 and incubated overnight at 4° C. in an airtight humidified box. After incubation, excess target solution was shaken out and wells were filled with 300 μL of blocking buffer (0.1 M NaHCO₃pH 8.6, 5 mg/mL BSA). Following 2 h incubation at 4° C., blocking buffer was removed and wells were washed six times with 200 μL of TBST (50 mM Tris-HCl pH 8.6, 150 mM NaCl, 0.5% Tween). Isolated individual phage amplifications (10¹⁰ PFU) in 100 μl of TBST were incubated at room temperature for 1 h with rocking. All wells were then cleared by shaking and washed six times with 200 μL of TBST. A solution containing Anti-M13 HRP linked-Monoclonal Antibodies (NEB) (1:5,000 dilution in blocking buffer) was distributed at 200 μL per well and incubated with rocking at room temperature for 1 h. Wells were washed six times with TBST and incubated with Turbo TMB-ELISA for 30 min with rocking at room temperature. […] Data from seven independent experiments are shown with mean and SEM

B1: synthetic peptide C7-3m2 (H-ACSYCRLNLWGGGS-NH2) (peptide)
peptide: H-ACSYCRLNLWGGGS-NH2
modifications: cysteine pairing not given here
- IC50 of inhibition of nitrite reductase activity of sAniA (DAN assay) [1]: 4.81 µM

B2: synthetic peptide C7-3 (H-ACNYCRLNLWGGGS-NH2) (peptide)
peptide: H-ACNYCRLNLWGGGS-NH2
modifications: cysteine pairing not given here
- IC50 of inhibition of nitrite reductase activity of sAniA (DAN assay) [1]: 10.2 µM

B3: synthetic peptide C7-3A (H-ACNACRLNLWGGGS-NH2) (peptide)
peptide: H-ACNACRLNLWGGGS-NH2
modifications: cysteine pairing not given here
- IC50 of inhibition of nitrite reductase activity of sAniA (DAN assay) [1]: ~25.2 µM

B4: synthetic peptide C7-3m2 (H-…-NH2) (peptide)
peptide: H-ACSYCRLNLWGGGS-NH2
modifications: cysteine pairing not given here
- percent inhibition of nitrite reductase activity of intact N. gonorrhoeae cells at 0.3 mM peptide [2]: 50%
- percent inhibition of nitrite reductase activity of intact N. gonorrhoeae cells at 0.6 mM peptide [2]: 90%

B5: synthetic peptide C7-3P (H-ACNFCRLNLWGGGS-NH2) (peptide)
peptide: H-ACNFCRLNLWGGGS-NH2
modifications: cysteine pairing not given here
- IC50 of inhibition of nitrite reductase activity of sAniA (DAN assay) [1]: > 105 µM

B6: synthetic peptide C7-3m1 (H-ACNYSRLNLWGGGS-NH2) (peptide)
peptide: H-ACNYSRLNLWGGGS-NH2
- IC50 of inhibition of nitrite reductase activity of sAniA (DAN assay) [1]: 5.91 µM

B7: C7-3Bio, C7-3 biotinylated at the N-terminus (BiotinAhx-ACNYCRLNLWGGGS-NH2) (peptide)
peptide: {Biotin-Ahx}-ACNYCRLNLWGGGS-NH2
modifications: cysteine pairing not given here
notes: Immobilized on streptavidin biosensors in the BLI experiment; also called biotinylated C7-3
- Kd [3]: 0.775 µM
- IC50 of inhibition of nitrite reductase activity of AniA (DAN assay) [1]: 13.5 µM

B8: synthetic peptide C7-3 (H-…-NH2) (peptide)
peptide: H-ACNYCRLNLWGGGS-NH2
modifications: cysteine pairing not given here
- percent inhibition of nitrite reductase activity of intact N. gonorrhoeae cells at 0.6 mM peptide [2]: 50%

B9: phage-displayed peptide C7-3 (CNYCRLNLW), M13 phage clone from the Ph.D.-C7C library (peptide, not shown: large carriers)
peptide: CNYCRLNLW
notes: Tested as whole phage (10^10 PFU per well) in the phage ELISA; Trp stands where the library's second Cys would be; also called phage-expressed C7-3
- fold lower relative binding in comparison to 12-5 [4]: ~2 fold
